Measurements: PMC13022674, “Thymine DNA glycosylase binds to R-loops and excises 5-formyl and 5-carboxyl cytosine from DNA/RNA hybrids”

Columns and labels:
[1] = target: T1, TDG (thymine DNA glycosylase) (human, UniProt Q13569 1-410); experiment: EMSA; EMSA: 5 nM substrate, 100 mM NaCl, 2.5 mM MgCl2, 10 mM Tris-HCl pH 7.5, 5% glycerol, 30 min 30 C, 0.6% agarose 1x TBE 4 C; NMR: 0.1 M NaCl, 0.03 mM TCEP, 15 mM; settings: protein: recombinant; tags: His tag (pET28a, TALON purified); blunt
[2] = target: T1, TDG (thymine DNA glycosylase); experiment: EMSA; Hill 2.9; EMSA: 5 nM substrate, 100 mM NaCl, 2.5 mM MgCl2, 10 mM Tris-HCl pH 7.5, 5% glycerol, 30 min 30 C, 0.6% agarose 1x TBE 4 C; NMR: 0.1 M NaCl, 0.03 mM TCEP, 15 mM; settings: protein: recombinant; tags: His tag (pET28a, TALON purified); label: 5'-FAM strand 1; 5' overhang 1 nt (strand 1)
[3] = target: T1, TDG (thymine DNA glycosylase); experiment: EMSA; Hill 6.1; EMSA: 5 nM substrate, 100 mM NaCl, 2.5 mM MgCl2, 10 mM Tris-HCl pH 7.5, 5% glycerol, 30 min 30 C, 0.6% agarose 1x TBE 4 C; NMR: 0.1 M NaCl, 0.03 mM TCEP, 15 mM; settings: protein: recombinant; tags: His tag (pET28a, TALON purified); label: 5'-FAM strand 1; 5' overhang 1 nt (strand 1)
[4] = target: T1, TDG (thymine DNA glycosylase); experiment: EMSA; Hill 1.8; EMSA: 5 nM substrate, 100 mM NaCl, 2.5 mM MgCl2, 10 mM Tris-HCl pH 7.5, 5% glycerol, 30 min 30 C, 0.6% agarose 1x TBE 4 C; NMR: 0.1 M NaCl, 0.03 mM TCEP, 15 mM; settings: protein: recombinant; tags: His tag (pET28a, TALON purified); label: 5'-FAM strand 1; blunt; G-UF pair intended
[5] = target: T1, TDG (thymine DNA glycosylase); experiment: EMSA; Hill 2.7; EMSA: 5 nM substrate, 100 mM NaCl, 2.5 mM MgCl2, 10 mM Tris-HCl pH 7.5, 5% glycerol, 30 min 30 C, 0.6% agarose 1x TBE 4 C; NMR: 0.1 M NaCl, 0.03 mM TCEP, 15 mM; settings: protein: recombinant; tags: His tag (pET28a, TALON purified); label: 5'-FAM strand 1; blunt
[6] = target: T1, TDG (thymine DNA glycosylase); experiment: EMSA; Hill 3.0; EMSA: 5 nM substrate, 100 mM NaCl, 2.5 mM MgCl2, 10 mM Tris-HCl pH 7.5, 5% glycerol, 30 min 30 C, 0.6% agarose 1x TBE 4 C; NMR: 0.1 M NaCl, 0.03 mM TCEP, 15 mM; settings: protein: recombinant; tags: His tag (pET28a, TALON purified); label: 5'-FAM strand 1; blunt
[7] = target: T1, TDG (thymine DNA glycosylase); experiment: EMSA; Hill 4.5; EMSA: 5 nM substrate, 100 mM NaCl, 2.5 mM MgCl2, 10 mM Tris-HCl pH 7.5, 5% glycerol, 30 min 30 C, 0.6% agarose 1x TBE 4 C; NMR: 0.1 M NaCl, 0.03 mM TCEP, 15 mM; settings: protein: recombinant; tags: His tag (pET28a, TALON purified); label: 5'-FAM strand 1; blunt
[8] = target: T1, TDG (thymine DNA glycosylase); experiment: EMSA; Hill 2.3; EMSA: 5 nM substrate, 100 mM NaCl, 2.5 mM MgCl2, 10 mM Tris-HCl pH 7.5, 5% glycerol, 30 min 30 C, 0.6% agarose 1x TBE 4 C; NMR: 0.1 M NaCl, 0.03 mM TCEP, 15 mM; settings: protein: recombinant; tags: His tag (pET28a, TALON purified); label: 5'-FAM strand 1; blunt
[9] = target: T1, TDG (thymine DNA glycosylase); experiment: EMSA; Hill 4.9; EMSA: 5 nM substrate, 100 mM NaCl, 2.5 mM MgCl2, 10 mM Tris-HCl pH 7.5, 5% glycerol, 30 min 30 C, 0.6% agarose 1x TBE 4 C; NMR: 0.1 M NaCl, 0.03 mM TCEP, 15 mM; settings: protein: recombinant; tags: His tag (pET28a, TALON purified); label: 5'-FAM strand 1; blunt
[10] = target: T1, TDG (thymine DNA glycosylase); experiment: EMSA; Hill 2.0; EMSA: 5 nM substrate, 100 mM NaCl, 2.5 mM MgCl2, 10 mM Tris-HCl pH 7.5, 5% glycerol, 30 min 30 C, 0.6% agarose 1x TBE 4 C; NMR: 0.1 M NaCl, 0.03 mM TCEP, 15 mM; settings: protein: recombinant; tags: His tag (pET28a, TALON purified); label: 5'-FAM strand 1; blunt

T1 sequence (Q13569 whole entry): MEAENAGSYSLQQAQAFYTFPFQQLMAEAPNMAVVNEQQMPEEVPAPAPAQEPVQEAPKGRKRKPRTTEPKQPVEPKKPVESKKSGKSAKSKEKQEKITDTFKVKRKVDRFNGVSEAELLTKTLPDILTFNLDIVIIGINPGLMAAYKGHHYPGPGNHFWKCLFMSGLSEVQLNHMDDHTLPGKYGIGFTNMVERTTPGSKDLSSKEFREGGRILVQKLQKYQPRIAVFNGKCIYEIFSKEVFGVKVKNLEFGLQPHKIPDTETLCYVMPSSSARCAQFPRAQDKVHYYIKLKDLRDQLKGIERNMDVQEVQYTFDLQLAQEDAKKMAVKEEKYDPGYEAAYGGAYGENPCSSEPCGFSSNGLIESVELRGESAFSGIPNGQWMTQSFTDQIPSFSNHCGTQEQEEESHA

B1: TCF21-DNA (unmodified) (dsDNA)
DNA 1: TCCTAGTGTCCACCAAATTCCTCAGCGCTCGCTCACCCTCCTCTACGGCCACGACTCTGGGAGTG
DNA 2: CACTCCCAGAGTCGTGGCCGTAGAGGAGGGTGAGCGAGCGCTGAGGAATTTGGTGGACACTAGGA
Kd [1]: 49 nM

B2: D2-C (dsDNA)
DNA 1: TGTGTCACCACTGCTCACGTACAGAGCTG
DNA 2: CAGCTCTGTACGTGAGCAGTGGTGACAC
Kd [2]: 47 nM

B3: H2-C (DNA:RNA)
DNA: TGTGTCACCACTGCTCACGTACAGAGCTG
RNA: CAGCUCUGUACGUGAGCAGUGGUGACAC
modifications: strand 2 RNA
Kd [3]: 57 nM

B4: D1-UF (dsDNA)
DNA 1: TGAGGATGTATATATCTGAUGCGCCGGTGGAGC
DNA 2: GCTCCACCGGCGCGTACGATATATACATCCTCA
modifications: 2'-deoxy-2'-fluoroarabinouridine (UF) at strand 1 pos 20
Kd [4]: 32 nM

B5: H1-5caC (DNA:RNA)
DNA: TGAGGATGTATATATCTGACGCGCCGGTGGAGC
RNA: GCUCCACCGGCGCGUACGAUAUAUACAUCCUCA
modifications: 5-carboxycytosine at strand 1 pos 20; strand 2 RNA
Kd [5]: 31 nM

B6: D1-5fC (dsDNA)
DNA 1: TGAGGATGTATATATCTGACGCGCCGGTGGAGC
DNA 2: GCTCCACCGGCGCGTACGATATATACATCCTCA
modifications: 5-formylcytosine at strand 1 pos 20
Kd [6]: 56 nM

B7: H1-C (DNA:RNA)
DNA: TGAGGATGTATATATCTGACGCGCCGGTGGAGC
RNA: GCUCCACCGGCGCGUACGAUAUAUACAUCCUCA
modifications: strand 2 RNA
Kd [7]: 67 nM

B8: D1-C (dsDNA)
DNA 1: TGAGGATGTATATATCTGACGCGCCGGTGGAGC
DNA 2: GCTCCACCGGCGCGTACGATATATACATCCTCA
Kd [8]: 43 nM

B9: H1-5fC (DNA:RNA)
DNA: TGAGGATGTATATATCTGACGCGCCGGTGGAGC
RNA: GCUCCACCGGCGCGUACGAUAUAUACAUCCUCA
modifications: 5-formylcytosine at strand 1 pos 20; strand 2 RNA
Kd [9]: 60 nM

B10: D1-5caC (dsDNA)
DNA 1: TGAGGATGTATATATCTGACGCGCCGGTGGAGC
DNA 2: GCTCCACCGGCGCGTACGATATATACATCCTCA
modifications: 5-carboxycytosine at strand 1 pos 20
Kd [10]: 25 nM
